Measurements from US20230250154A1 (CYTONICS, published 2023).

Key:
Test in all cases: cell-based or functional assay
ADAMTS4 = biological target: T1, ADAMTS4 (human, UniProt O75173 213-685, limits assumed)
T1 sequence (looked up): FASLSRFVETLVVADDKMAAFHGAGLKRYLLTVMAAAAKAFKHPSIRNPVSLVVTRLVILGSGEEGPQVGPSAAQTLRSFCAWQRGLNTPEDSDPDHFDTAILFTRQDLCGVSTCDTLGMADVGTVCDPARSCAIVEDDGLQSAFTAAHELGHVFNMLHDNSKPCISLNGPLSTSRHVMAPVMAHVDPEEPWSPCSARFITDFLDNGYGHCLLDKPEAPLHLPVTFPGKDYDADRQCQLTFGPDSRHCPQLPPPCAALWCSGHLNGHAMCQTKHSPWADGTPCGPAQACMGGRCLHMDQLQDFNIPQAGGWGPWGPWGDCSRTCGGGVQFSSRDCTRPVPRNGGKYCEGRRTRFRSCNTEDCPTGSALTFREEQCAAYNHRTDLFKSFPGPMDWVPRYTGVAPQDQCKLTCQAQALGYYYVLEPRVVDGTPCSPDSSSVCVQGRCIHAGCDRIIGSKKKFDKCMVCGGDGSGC

MMP13 = MMP13 (human, UniProt P45452 104-471, limits assumed)
ADAMTS5 = biological target: T2, ADAMTS5 (human, UniProt Q9UNA0 262-622, limits assumed)
T2 sequence (looked up): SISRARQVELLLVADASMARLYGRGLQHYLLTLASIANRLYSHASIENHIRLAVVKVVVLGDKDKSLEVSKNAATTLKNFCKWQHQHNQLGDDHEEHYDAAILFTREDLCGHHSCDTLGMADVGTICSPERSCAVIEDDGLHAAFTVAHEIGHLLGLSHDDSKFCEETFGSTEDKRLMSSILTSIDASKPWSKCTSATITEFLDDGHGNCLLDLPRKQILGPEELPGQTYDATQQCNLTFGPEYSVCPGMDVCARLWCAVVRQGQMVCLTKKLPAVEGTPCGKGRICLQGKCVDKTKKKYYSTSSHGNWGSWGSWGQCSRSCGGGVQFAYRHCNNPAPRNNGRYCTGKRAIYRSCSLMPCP

B1: Variant A2M, bait region SEQ ID NO 99 (other)
chain: SVSGKPQYMVLVPSLLHTETTEKGCVLLSYLNETVTVSASLESVRGNRSLFTDLEAENDVLHCVAFAVPKSSSNEEVMFLTVQVKGPTQEFKKRTTVMVKNEDSLVFVQTDKSIYKPGQTVKFRVVSMDENFHPLNELIPLVYIQDPKGNRIAQWQSFQLEGGLKQFSFPLSSEPFQGSYKVVVQKKSGGRTEHPFTVEEFVLPKFEVQVTVPKIITILEEEMNVSVCGLYTYGKPVPGHVTVSICRKYSDASDCHGEDSQAFCEKFSGQLNSHGCFYQQVKTKVFQLKRKEYEMKLHTEAQIQEEGTVVELTGRQSSEITRTITKLSFVKVDSHFRQGIPFFGQVRLVDGKGVPIPNKVIFIRGNEANYYSNATTDEHGLVQFSINTTNVMGTSLTVRVNYKDRSPCYGYQWVSEEHEEAHHTAYLVFSPSKSFVHLEPMSHELPCGHTQTVQAHYILNGGTLLGLKKLSFYYLIMAKGGIVRTGTHGLLVKQEDMKGHFSISIPVKSDIAPVARLLIYAVLPTGDVIGDSAKYDVENCLANKVDLSFSPSQSLPASHAHLRVTAAPQSVCALRAVDQSVLLMKPDAELSASSVYNLLPEKDLTGFPGPLNDQDDEDCINRHNVYINGITYTPVSSTNEKDMYSFLEDMGLKAFTNSKIRKPKMCPQLEQYEMHGPEGLRVGGPPGLAPGFYESDVMGRGHARLVHVEEPHTKLLRKYFPETWIWDLVVVNSAGVAEVGVTVPDTITEWKAGAFCLSEDAGLGISSTASLRAFQPFFVELTMPYSVIRGEAFTLKATVLNYLPKCIRVSVQLEASPAFLAVPVEKEQAPHCICANGRQTVSWAVTPKSLGNVNFTVSAEALESQELCGTEVPSVPEHGRKDTVIKPLLVEPEGLEKETTFNSLLCPSGGEVSEELSLKLPPNVVEESARASVSVLGDILGSAMQNTQNLLQMPYGCGEQNMVLFAPNIYVLDYLNETQQLTPEIKSKAIGYLNTGYQRQLNYKHYDGSYSTFGERYGRNQGNTWLTAFVLKTFAQARAYIFIDEAHITQALIWLSQRQKDNGCFRSSGSLLNNAIKGGVEDEVTLSAYITIALLEIPLTVTHPVVRNALFCLESAWKTAQEGDHGSHVYTKALLAYAFALAGNQDKRKEVLKSLNEEAVKKDNSVHWERPQKPKAPVGHFYEPQAPSAEVEMTSYVLLAYLTAQPAPTSEDLTSATNIVKWITKQQNAQGGFSSTQDTVVALHALSKYGAATFTRTGKAAQVTIQSSGTFSSKFQVDNNNRLLLQQVSLPELPGEYSMKVTGEGCVYLQTSLKYNILPEKEEFPFALGVQTLPQTCDEPKAHTSFQISLSVSYTGSRSASNMAIVDVKMVSGFIPLKPTVKMLERSNHVSRTEVSSNHVLIYLDKVSNQTLSLFFTVLQDVPVRDLKPAIVKVYDYYETDEFAIAEYNAPCSKDLGNADYKDDDDKGASHHHHHH
Protease Inhibition (% of WT) (ADAMTS4): 63 % of WT | Protease Inhibition (% of WT) (MMP13): 64 % of WT | Protease Inhibition (% of WT) (ADAMTS5): 87 % of WT
